Laboratory results: patent US20100029702A1, “Method For Identification of Compound Having Anti-Anxiety Effect” (priority 2006, published 2010)

Biological target: T1, ph01207 gene product (Homo sapiens, UniProt O60241, DEL308-362)
T1 construct: oocytes expressing the gene (ph01207 cDNA clones); expressed in transfected cells; host or cells: Xenopus laevis oocytes
T1 sequence (O60241 with tags, fused parts or gaps DEL308-362): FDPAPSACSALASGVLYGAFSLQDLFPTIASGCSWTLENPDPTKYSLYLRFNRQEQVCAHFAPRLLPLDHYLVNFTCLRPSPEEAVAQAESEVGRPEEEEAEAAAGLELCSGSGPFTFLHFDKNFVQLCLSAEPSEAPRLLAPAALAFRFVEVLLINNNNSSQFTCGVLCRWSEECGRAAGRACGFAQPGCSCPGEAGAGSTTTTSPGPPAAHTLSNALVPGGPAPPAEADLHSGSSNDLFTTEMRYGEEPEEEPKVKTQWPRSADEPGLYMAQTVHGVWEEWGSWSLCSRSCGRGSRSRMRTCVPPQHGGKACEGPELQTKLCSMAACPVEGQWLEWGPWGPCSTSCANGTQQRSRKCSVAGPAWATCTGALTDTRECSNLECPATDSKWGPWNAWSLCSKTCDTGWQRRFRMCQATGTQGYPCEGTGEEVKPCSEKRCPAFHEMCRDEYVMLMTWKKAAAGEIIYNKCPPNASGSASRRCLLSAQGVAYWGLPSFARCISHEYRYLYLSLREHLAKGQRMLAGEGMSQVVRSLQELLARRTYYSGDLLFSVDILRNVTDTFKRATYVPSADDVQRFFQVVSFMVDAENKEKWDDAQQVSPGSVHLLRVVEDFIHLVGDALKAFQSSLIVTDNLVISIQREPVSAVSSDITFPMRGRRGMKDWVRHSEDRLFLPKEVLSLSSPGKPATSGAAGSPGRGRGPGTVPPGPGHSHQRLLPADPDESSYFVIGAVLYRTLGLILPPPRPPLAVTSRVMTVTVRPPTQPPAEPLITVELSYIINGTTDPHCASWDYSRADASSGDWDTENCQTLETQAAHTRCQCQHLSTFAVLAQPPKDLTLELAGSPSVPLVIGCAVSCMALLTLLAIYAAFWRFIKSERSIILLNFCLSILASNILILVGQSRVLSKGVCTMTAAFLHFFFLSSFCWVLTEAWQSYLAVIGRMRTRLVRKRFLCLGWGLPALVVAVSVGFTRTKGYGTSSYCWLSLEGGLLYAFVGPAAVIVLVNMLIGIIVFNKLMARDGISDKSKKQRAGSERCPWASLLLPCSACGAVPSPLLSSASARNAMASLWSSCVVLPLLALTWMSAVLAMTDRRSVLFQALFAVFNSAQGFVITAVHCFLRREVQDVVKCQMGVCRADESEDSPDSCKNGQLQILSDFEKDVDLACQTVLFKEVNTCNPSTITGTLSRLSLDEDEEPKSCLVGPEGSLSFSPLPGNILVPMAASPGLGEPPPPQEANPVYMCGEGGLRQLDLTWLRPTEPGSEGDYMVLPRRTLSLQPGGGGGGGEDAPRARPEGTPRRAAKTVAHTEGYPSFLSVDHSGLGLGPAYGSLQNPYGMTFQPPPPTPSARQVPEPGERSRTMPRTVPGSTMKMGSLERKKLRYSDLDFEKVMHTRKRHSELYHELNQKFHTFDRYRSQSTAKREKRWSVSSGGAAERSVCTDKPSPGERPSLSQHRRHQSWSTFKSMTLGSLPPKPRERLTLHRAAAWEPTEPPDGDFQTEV
Experiment: Intracellular calcium concentration change assay with ph01207#3F8-17 strain: inhibition of the response to CCK-8S
Format: cell-based
Details: 10 nM CCK-8S, wells with buffer
Source text: A compound that inhibits a response of the ph01207 gene product to a ligand was identified by an intracellular calcium concentration change assay system using the ph01207-expressing cell strain.
The ph01207-expressing cell strain was constructed as follows. First, a ph01207-expressing vector not containing an epitope tag was constructed by recombination between a ph01207 cDNA clone identified in Example 1 and pcDNA3.1 (Invitrogen) with Asp718I (Boehringer) and NotI (TAKARA). The ph01207-expressing vector was transfected into the CHO-K1 strain, a host cell, using Lipofectamine 2000 (Invitrogen), and the cells were screened for stably-expressing strains by a selective medium containing G418. Expression of the gene introduced into the cell was detected by the FCM analysis using an anti-ph01207 antibody.
As a result, a plurality of cell strains stably expressing ph01207 were obtained. A compound was identified using the ph01207#3F8-17 strain, a clone of these strains.
As a ligand, CCK-8S (Peptide Institute, Inc.) was used. […]
Compounds were specifically identified as follows. […] After reaction, CCK-8S (Peptide Institute, Inc.) and a compound was added, and changes over time in the fluorescence intensity in each well were measured for 80 sec. […] Changes over time in the fluorescence intensity were measured using the FLEX station (Molecular Device).

- Change in fluorescence intensity (intracellular Ca2+) after addition of CCK-8S: increased
Substance: cholecystokinin octapeptide sulfated form [CCK-8S]
